# Measurements published in publication PMC8226212, “LaPT2 Gene Encodes a Flavonoid Prenyltransferase in White Lupin” (Frontiers in Plant Science, 2021).
# B1: LaPT2 (Lupinus albus) (protein)
# chain: MGFVLAATSFPKAPSFTSGRSSWNSKEYTKNYYASSHVTTLWHKTGIIQKEPCFMMAWPQNLKLHCKVKGGDKRNYVMNAASGKSNEYETQDLDQRNNWGTLINALHVFFKFIRPTATLSLLLGATLTTLIAVEKLSDISAAYFIGLLQVMVVSSCMQVFMAGLNQLYDVEIDKINKPYLPLVSGELPFKNGVIIVATTFILGHLFPLIIGSGPLFWSFVFSSSLAIAYCADLPLLRWKRHSALTALNYIIDLGGVKPLGYVLHMQTYVFKRPPTFSRPLIFCMAMSSVFAIIIAIFKDITDMEGDEKFGIKSLSLHLGKKPVFWICVSLLQMAYVVAILMGTLSPFLWVKIAMGLGHGILASLVSYYANSVDLKSNPAIQSFYMFIWKLLTVEYFLIPLFR
# notes: open reading frame in pDR196GW, yeast W303A1 microsomal fraction; contig deduced as 407 aa (GFP construct named 88-403); predicted 87-aa transit peptide, no truncation stated for the assay
# Experiments:
# Assay in all cases: HPLC product assay, yeast microsomes, Eadie-Hofstee plot
# Format in all cases: biochemical, Lupinus albus
# [1] = substrate: O=c1c(O)c(-c2ccc(O)cc2)oc2cc(O)cc(O)c12; conditions: co-substrate DMAPP, 10 mM Mg2+, MOPS pH 7.0, 30°C
# [2] = substrate: O=c1c(O)c(-c2ccc(O)cc2O)oc2cc(O)cc(O)c12; conditions: co-substrate DMAPP, 10 mM Mg2+, MOPS pH 7.0, 30°C
# [3] = substrate: COc1ccc(-c2oc3cc(O)cc(O)c3c(=O)c2O)cc1; conditions: co-substrate DMAPP, 10 mM Mg2+, MOPS pH 7.0, 30°C
# [4] = substrate: O=c1c(O)c(-c2ccccc2)oc2cc(O)cc(O)c12; conditions: co-substrate DMAPP, 10 mM Mg2+, MOPS pH 7.0, 30°C
# [5] = substrate: O=C1c2c(O)cc(O)cc2O[C@H](c2ccc(O)cc2)[C@H]1O; conditions: co-substrate DMAPP, 10 mM Mg2+, MOPS pH 7.0, 30°C
# [6] = substrate: O=c1c(O)c(-c2ccc(O)c(O)c2)oc2cc(O)ccc12; conditions: co-substrate DMAPP, 10 mM Mg2+, MOPS pH 7.0, 30°C
# [7] = substrate: CC(C)=CCOP(=O)(O)OP(=O)(O)O; conditions: co-substrate 400 μM kaempferol, 10 mM Mg2+, MOPS pH 7.0, 30°C
# [8] = substrate: O=c1c(O)c(-c2ccc(O)c(O)c2)oc2cc(O)cc(O)c12; conditions: co-substrate DMAPP, 10 mM Mg2+, MOPS pH 7.0, 30°C
protein,measurement,setting,value
B1,Km,[1],74.07 ± 3.78 µM
same,Km,[2],20.85 ± 3.79 µM
same,Km,[3],115.19 ± 34.25 µM
same,Km,[4],20.66 ± 2.91 µM
same,Km,[5],20.08 ± 4.44 µM
same,Km,[6],10.02 ± 3.19 µM
same,Km,[7],66.11 ± 7.54 µM
same,Km,[8],102.81 ± 6.41 µM
